Test results from PMC10868436, “Discovery of broadly‐neutralizing antibodies against brown recluse spider and Gadim scorpion sphingomyelinases using consensus toxins as antigens” (Protein Science : A Publication of the Protein Society, 2024).

B1: TPL0674_03_A04 (scFv, V domains shown)
VH: QVQLVQSGSELKKPGASVKVSCKASGYTFTSYAMNWVRQAPGQGLEWMGWINTNTGNPTYAQGFTGRFVFSLDTSVSTAYLQISSLKAEDTAVYYCARDQGGDRHFGYWGQGTTVTVSS
VL: QSELTQPPSASGTPGQRVTISCSGSSSNIGSHRVNWYQQLPGTAPKLLIYSNYHRPAGVPDRFSASKSGTSASLAISGLQSEDEADYYCAAWDDSLNGYVFGTGTQLTVL
notes: also called scFv TPL0674_03_A04
B2: TPL0674_03_F05 (scFv, V domains shown)
VH: EVQLVQSGAEVKKPGASVRVSCKASGYSITNYGISWVRQAPGQGLEWMGWINTYNGNTNYAQKFQGRVTMTRDTSISTAYMELSRLRSDDTAVYYCARDHPYRGMDVWGQGTLVTVSS
VL: SYELTQDPAVSVALGQTVRITCQGDSLRSYYASWYQQKPGQAPVLVIYGKNNRPSGIPDRFSGSSSGNTASLTITGAQAEDEADYYCNSRDSSGNHPHVVFGGGTKLTVL
notes: also called scFv TPL0674_03_F05

Columns and labels:
[1] = biological target: T1, recombinant SMase from L. rufescens (Loxosceles rufescens, UniProt C0JB02); test: BLI; ForteBio Octet RED96, […]; 1:1 binding model, […]; triplicate; details: both partners purified
T1 construct: also called rLr; recombinant sphingomyelinase from Loxosceles rufescens; source: E. coli BL21(DE3), purified (HisPur Ni-NTA)
T1 sequence (C0JB02 whole entry, looked up): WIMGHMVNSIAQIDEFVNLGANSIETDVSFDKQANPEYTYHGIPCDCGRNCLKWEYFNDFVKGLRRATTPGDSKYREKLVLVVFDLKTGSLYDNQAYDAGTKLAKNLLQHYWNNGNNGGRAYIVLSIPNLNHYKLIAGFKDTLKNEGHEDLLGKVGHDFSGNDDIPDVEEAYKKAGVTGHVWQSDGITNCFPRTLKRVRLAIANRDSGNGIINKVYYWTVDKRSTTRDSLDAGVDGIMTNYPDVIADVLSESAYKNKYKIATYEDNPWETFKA

[2] = biological target: T2, recombinant SMase from H. lepturus (Hemiscorpius lepturus, UniProt A0A1L4BJ98); test: as above; details: both partners purified
T2 construct: also called rHl; recombinant sphingomyelinase from Hemiscorpius lepturus; source: E. coli BL21(DE3), purified (HisPur Ni-NTA)
T2 sequence (A0A1L4BJ98 whole entry, looked up): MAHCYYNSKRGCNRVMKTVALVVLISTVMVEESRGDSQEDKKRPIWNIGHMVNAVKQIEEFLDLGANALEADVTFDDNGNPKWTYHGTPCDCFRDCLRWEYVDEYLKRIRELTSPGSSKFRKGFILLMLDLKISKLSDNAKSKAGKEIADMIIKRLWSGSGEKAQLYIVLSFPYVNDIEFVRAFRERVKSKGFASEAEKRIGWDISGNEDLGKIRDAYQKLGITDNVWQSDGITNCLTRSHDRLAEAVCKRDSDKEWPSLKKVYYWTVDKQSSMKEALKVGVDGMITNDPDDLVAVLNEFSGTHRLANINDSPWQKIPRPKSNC

Binder | Kd [1] | Kd [2]
B1 | 66.9 nM | 45.3 nM
B2 | 80.4 nM | 51.6 nM
